Experimental data from the PETadex activity labels.

substrate: BHET; test: Proxy for plastic degradation [Released monomer concentration (HPLC/LC-MS) (BHET)]; conditions: pH 7

| Protein | Proxy for plastic degradation [%] |
| --- | --- |
| unnamed (protein) MSMTASAYALAQSSPYAKGPDPTTSSLEAATGSFSTRTTTVSRLSASGFGGGTIYYPTASGSYGAIAISPGFTAYQSSISWLGTRLASRGFVVITIDTITTSDQPDSRGRQLKAALDKVVSLSRTAGNVLYGKVDANRLAVAGHSMGGGGTLAAARDNPSLKAAVPLAPWHTTKFFSTIRVPTLIIGGESDTIAPVASHSIPFYTSSLSSIAKGYMELNNASHFFPQTSTYYPLVGKYMISWFKRFVDEDTRYSPFLCGAPHQSDVANFLRVSDYRENCPY | 1 |

substrate: BHET; test: not given; conditions: 50 °C; part of the chain shown

| Protein | Km [µM] | kcat [s⁻¹] | kcat/Km [M⁻¹ s⁻¹] |
| --- | --- | --- | --- |
| unnamed (protein) MNFPRASRLMQAAVLGGLMAVSAAATAQTNPYARGPNPTAASLEASAGPFTVRSFTVSRPSGYGAGTVYYPTNAGGTVGAIAIVPGYTARQSSIKWWGPRLASHGFVVITIDTNSTLDQPSSRSSQQMAALRQVASLNGTSSSPIYGKVDTARMGVMGHSMGGGGSLISAANNPSLKAAAPQAPWDSSTNFSSVTVPTLIFACENDSIAPVNSSALPIYDSMSRNAKQFLEINGGSHFCANSGNSNQALIGKKGVAWMKRFMDNDTRYSTFACENPNSTRVSDFRTANCS | 1610 | 540 | 335000 |
